Numbering of substitutions follows the chain as printed. Names and notes keep the numbering of the source. Each block holds one binder with its values, some of them ahead of it.
Tests used:
[1] = target: T1, cynomolgus TREM-1 (cTREM-1) protein (cynomolgus monkey); assay: SPR, mAb captured by anti-Fc, cTREM-1 as analyte
T1 construct: also called cyno TREM-1
T1 chain: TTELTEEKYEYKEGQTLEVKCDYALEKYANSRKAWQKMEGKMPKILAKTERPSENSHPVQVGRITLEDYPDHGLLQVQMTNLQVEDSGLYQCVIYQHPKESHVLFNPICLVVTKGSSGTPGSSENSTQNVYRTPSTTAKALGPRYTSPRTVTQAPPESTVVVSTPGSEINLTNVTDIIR
Protocol: Binding studies were performed on a ProteOn Analyzer (BioRad) that measures molecular interactions in real time through surface plasmon resonance. Experiments were run at 25° C. and the samples were stored at 15° C. in the sample compartment. The signal (RU, response units) reported by the ProteOn is directly correlated to the mass on the individual sensor chip surfaces in six parallel flow cells. Anti-human Fc monoclonal or anti-murine Fc polyclonal antibody from Biacore human or mouse Fc capture kits were immobilized in horizontal direction onto flow cells of a GLM sensor chip according to the manufacturer's instructions. The final immobilization level of capture antibody was approximately 2600-6000 RU in different experiments. […] Binding of hTREM-1 or cTREM-1 proteins was conducted by injecting analyte (antigen) over all flow cells in horizontal direction to allow for comparative analyses of binding to different captured anti-TREM-1 antibodies relative to binding to the reference interspot. hTREM-1 or cTREM-1 proteins was diluted serially 1:3 to 1.2-100 nM or into running buffer, injected at 100 μl/min for 250 s and allowed to dissociate for 600s. The GLM surface was regenerated after each injection cycle of analyte via two 18 s injections of 10 mM Glycine, pH 1.7 and 50 mM NaOH at 100 μl/min. This regeneration step removed the anti-TREM-1 antibody and any bound TREM-1 protein from the immobilized capture antibody surface, and allowed for the subsequent binding of the next interaction sample pair.

[2] = target: T2, cTREM-1 construct, residues M1-R180 of SEQ ID NO: 12 with six histidine residues at the C-terminus (cynomolgus monkey); assay: HX-MS
T2 chain: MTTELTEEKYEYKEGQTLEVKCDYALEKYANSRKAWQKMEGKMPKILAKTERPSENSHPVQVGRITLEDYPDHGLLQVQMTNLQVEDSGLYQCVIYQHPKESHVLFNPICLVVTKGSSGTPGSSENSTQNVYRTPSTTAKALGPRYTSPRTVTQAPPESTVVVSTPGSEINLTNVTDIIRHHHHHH
Protocol: Non-deuterated controls were prepared by diluting into protiated hepes buffer. The hydrogen exchange experiments were performed on a waters HDX nanoAcquity ultra-high performance liquid chromatography (UPLC) system (Waters Corporation, Milford, Mass., USA) which included the HD-x PAL auto sampler (LEAP Technologies Inc., Carrboro, N.C., USA) for automated sample preparation. The LC tubing, pre- and analytical columns and switching valves were located in a chamber cooled to 0.3° C. The trypsin digestion column was stored at 15° C. Hydrogen exchange reactions were performed at 20° C. Mass analysis was performed online using a Waters SYNAPT G2 HDMS mass spectrometer.
The mass spectrometer was operated in positive ion mode with ion mobility separation enabled. […] Deuterated samples were analysed using the 6 V low energy trap collision offset only.
The MS^E-data was analysed using Waters ProteinLynx Global Server 2.5 and peptides of hTREM-1 were identified that covered 80% of the protein sequence (Table 3) and peptides of cTREM-1 were identified that covered 100% of the protein sequence (Table 4). The HX-MS data files were analysed using Waters DynamX 1.0 that automatically applies lock-mass correction and determines the degree of deuterium incorporation in each peptide. […]

[3] = target: T1, cynomolgus TREM-1 (cTREM-1) protein; assay: SPR, mAb captured by anti-Fc, cTREM-1 as analyte (Example 11)
Protocol: Binding studies were performed on a ProteOn Analyzer (BioRad) that measures molecular interactions in real time through surface plasmon resonance. Experiments were run at 25° C. and the samples were stored at 15° C. in the sample compartment. The signal (RU, response units) reported by the ProteOn is directly correlated to the mass on the individual sensor chip surfaces in six parallel flow cells.
Anti-human Fc monoclonal or anti-murine Fc polyclonal antibody from Biacore human or mouse Fc capture kits were immobilized in horizontal direction onto flow cells of a GLM sensor chip according to the manufacturer's instructions. The final immobilization level of capture antibody was approximately 2600-6000 RU in different experiments. […] This regeneration step removed the anti-TREM-1 antibody and any bound TREM-1 protein from the immobilized capture antibody surface, and allowed for the subsequent binding of the next interaction sample pair.

[4] = target: T3, full length cynomolgus monkey (c)TREM-1 on cells (cynomolgus monkey); assay: binding to cynomolgus monkey PBMCs, FIG. 6A
T3 construct: also called cynoTREM-1; cTREM-1 reporter cell
T3 chain: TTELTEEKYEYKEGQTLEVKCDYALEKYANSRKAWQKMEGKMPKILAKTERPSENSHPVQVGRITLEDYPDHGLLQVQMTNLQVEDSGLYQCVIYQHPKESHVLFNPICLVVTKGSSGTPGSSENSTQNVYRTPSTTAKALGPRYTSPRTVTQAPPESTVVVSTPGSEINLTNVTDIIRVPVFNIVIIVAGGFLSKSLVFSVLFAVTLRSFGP

[5] = target: T3, full length cynomolgus monkey (c)TREM-1 …; assay: binding to cynomolgus monkey PBMCs, FIG. 6B

B1: mAb 0122 (antibody, human IgG4 S228P, kappa, V domains shown)
VH: EVQLVESGGGLVQPGGSLKLSCAASGFTFSTYAMHWVRQASGKGLEWVGRIRTKSSNYATYYAASVKGRFTISRDDSKNTAYLQMNSLKTEDTAVYYCTRDMGQRRQFAYWGQGTLVTVSS
VL: DIVLTQSPDSLAVSLGERATINCRASESVDTFDYSFLHWYQQKPGQPPKLLIYRASNLESGVPDRFSGSGSGTDFTLTISSLQAEDVAVYYCQQSNEDPYTFGQGTKLEIKR
notes: Second humanised TREM-1 antibody; also called 14F113/14F69 hz variant LC M4L
Kd [1]: 0.97 nM

B4: mAb 0048 (antibody, V domains shown)
VH: EVQLVESGGGLVQPKGSLKLSCAASGFTFNTYAMHWVRQAPGKGLEWVARIRTKSNNYATYYVDSVKDRITISRDDSQSMLYLQMNNLKTEDTAMYYCVRDMGIRRQFAYWGQGTLVTVSA
VL: DIVLTQSPASLAVSLGQRATISCRASESVDSFGISFMHWYQQSPGQPPKLLIYRASNLESGIPARFSGSGSRTDFTLTINPVEADDVATYYCQQSNEDPYTFGGGTKLEIKR
notes: also called 14F11A1B1; 14F11
binding result [4]: binds
Kd [1]: 1.2 nM

B5: mAb 0054 (antibody, V domains shown)
VH: B4 VH
VL: B4 VL
notes: Hybridoma antibody 14F128A1; also called 14F128A1; 14F128
binding result [4]: binds

B6: mAb 0068 (antibody, V domains shown)
VH: B4 VH
VL: B4 VL
notes: Recombinant; also called 14F128/14F11 (recombinant)
Kd [1]: 12 nM

B8: mAb 0059 (antibody, IgG1, V domains shown)
VH: B4 VH with A23G, G26D, K43M, G44A, N56S, V63A, I70F, S79N, I104Q
VL: B4 VL with S31T, G33D, I34Y, M37L, S43K, K111E
notes: Recombinant; also called 14F113/14F69; 14F113A1B1C1 (recombinant)
Kd [1]: 0.67 nM

Other lines, results leading:

binding result [2]: binds
Kd [3]: 3 nM
Kd [1]: 3.6 nM
B2: mAb 0170 (antibody, human IgG4 S228P, kappa, V domains shown)
VH: B1 VH with Q104I
VL: B1 VL
notes: Final humanised antibody from hybridoma 14F113 with LC M4L back-mutation and HC CDR3 Q98I (Kabat); also called 14F113/14F69 hz variant LC Q98I

Kd [1]: 1.1 nM
B3: mAb 0124 (antibody, V domains shown)
VH: B1 VH
VL: DIVMTQSPDSLAVSLGERATINCRASESVDTFDYSFLHWYQQKPGQPPKLLIYRASNLESGVPDRFSGSGSRTDFTLTISSLQAEDVAVYYCQQSNEDPYTFGQGTKLEIK
notes: Recombinant; LC G68R (Kabat) in CDR grafted 14F113; also called 14F113/14F69 hz variant LC G68R; 14F113 hz variant LC G68R

Kd [1]: 4.7 nM
B7: mAb 0067 (antibody, V domains shown)
VH: B4 VH
VL: B4 VL
notes: also called 14F11A1B1 (recombinant)

binding result [5]: binds
B9: mAb 0044 (antibody, IgG2a, V domains shown)
VH: B4 VH with V5E, A23G, G26D, K43M, G44A, N56S, V63A, I70F, S79N, I104Q
VL: B4 VL with S31T, G33D, I34Y, M37L, S43K, K111E
notes: Hybridoma antibody; also called 14F69A1; 14F69
